Assay results: US20220249611A1 (Stanford University, published 2022)
HA tag and linker = not defined here

T1: human FGFR1 beta (IIIc)-Fc (R&D Systems) (human, UniProt P11362-14 22-285, limits assumed)
T1 construct: Bought reagent; also called FGFR1-Fc; Fc fusion of FGFR1; not shown: Fc domain (detected with anti-human IgG)
T1 sequence (looked up): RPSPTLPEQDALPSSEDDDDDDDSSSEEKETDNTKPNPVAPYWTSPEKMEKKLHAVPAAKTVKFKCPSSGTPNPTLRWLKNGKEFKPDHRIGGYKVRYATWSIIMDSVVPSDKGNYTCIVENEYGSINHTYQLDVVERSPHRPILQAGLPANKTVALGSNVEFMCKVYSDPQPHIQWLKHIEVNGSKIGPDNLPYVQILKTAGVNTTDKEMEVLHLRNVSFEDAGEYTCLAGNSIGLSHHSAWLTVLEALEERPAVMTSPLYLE


Assays:
[1] = molecular target: FGFRs expressed on NIH3T3 cells; test: cell-based or functional assay
[2] = molecular target: FGFRs expressed on NIH3T3 cells; test: equilibrium binding titration on NIH3T3 cells at 4 C, flow cytometry with anti-His antibody
[3] = molecular target: T1, human FGFR1 beta (IIIc)-Fc (R&D Systems); test: flow cytometry, yeast-displayed peptide with soluble FGFR1-Fc
Description: FIG. 15. Non-binding of peptide artifacts to FGFR1-Fc. Yeast cells expressing RTTTS or HTTS peptides on their cell surface were incubated with 10 nM FGFRT-Fc. Cells were stained with fluorescent antibodies for expression (α-c-myc) and binding (α-FGFR1-Fc).
50,000 induced yeast cells were incubated with various concentrations of FGFR1-Fc in phosphate-buffered saline with 1 g/L BSA (PBSA) at room temperature. Cells were incubated in sufficiently large volumes to avoid ligand depletion and long enough times (typically 3 to 24 hours) to reach equilibrium. During the last 30 minutes of incubation, yeast cells were incubated with 1:2500 dilution of chicken anti-c-Myc (Invitrogen) in PBSA. Yeast were pelleted, washed, then incubated with 1:200 dilution of secondary antibodies on ice for 10 min: anti-Human IgG-FITC (Sigma Aldrich) against FGFR1-Fc and anti-chicken-IgY-PE (Santa Cruz Biotechnology) against anti-c-myc. Yeast were washed, pelleted, and resuspended in PBSA immediately before analysis by flow cytometry using EMD Millipore Guava EasyCyte. Flow cytometry data were analyzed using FlowJo (v7.6.1). Binding curves were plotted and Kd values were obtained using GraphPad Prism 6.

inhibition of ERK phosphorylation induced by 1 nM wild type FGF1 in NIH3T3 cells (Western blot against phosphoERK), IC50 [1]	Kd [2]	binding result [3]	Molecule
0.001 µM	0.01 µM	–	recombinant soluble FGF1 L131R mutant with N-terminal 6x His tag (E. coli, pBAD/His B) (from UniProt P05230 16-155) (ligand)
–	0.01 µM	–	recombinant soluble wild-type FGF1 with N-terminal 6x His tag (E. coli, pBAD/His B) (from UniProt P05230 16-155) (ligand)
–	–	no binding (tested: 10 nM)	{Aga2p-HA tag and linker}-RTTTS-{c‑myc tag} (reading uncertain, not shown: Aga2p of S. cerevisiae, yeast display fusion partner (pCT vector); HA tag and vector linker; C-terminal c-myc tag) [yeast-displayed peptide artifact RTTTS]
–	–	no binding (tested: 10 nM)	{Aga2p-HA tag and linker}-HTTS-{c‑myc tag} (reading uncertain, not shown: Aga2p of S. cerevisiae, yeast display fusion partner (pCT vector); HA tag and vector linker; C-terminal c-myc tag) [yeast-displayed peptide artifact HTTS]
